Numbering of substitutions follows the chain as printed.
T1: recombinant canine β NGF (canine, UniProt Q29074 110-229 (pig entry))
T1 chain: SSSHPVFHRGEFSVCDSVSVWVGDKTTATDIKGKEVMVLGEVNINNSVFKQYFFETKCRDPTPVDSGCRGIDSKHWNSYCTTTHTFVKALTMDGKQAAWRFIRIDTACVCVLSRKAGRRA

T2: recombinant canine β NGF (canine, UniProt Q29074 110-229 (pig entry))
T2 chain: T1 chain

B1: Mu72 Canine IgG1/k Chimera (antibody, V domains shown)
VH: EVHLVESGGGLVKPGGFLILSCAASGFTFSDYYMFWIRQTPGKRLEWVATISDGGSYTYYTDNVKGRFTISRDNVKNNLYLQMSHLKSADTAMYYCARDWSDSEGFAYWGQGTLVTVSA
VL: DVLMTQTPLSLPVSLGDQASISCRSSQSIVQSNGNTYLEWYLQKPGQSPKLLIYKVSNRFSGVPDRFSGSGSGTDFTLKISRVEAEDLGVYYCFQGSHVPFTFGSGTKLEIKR
notes: also called PR-1290646; lot 1785614
B2: PR-1254972 (antibody, mouse IgG2b, V domains shown)
VH: B1 VH
VL: B1 VL
notes: also called 20B10; ML129-20B10.3F4
B3: PR-1254980 (antibody, mouse IgG1, V domains shown)
VH: EVQLQQSGAELVKPGASVKLSCTASGFNIKDTYIYWVKQRPEQGLEWIGRIDPANGNTIYASKFQGKATITADTSSNTAYMQLSSLTSGDTAVYYCAGYGYYAYWGQGTTLTVSS
VL: DVVLTQTPLSLPVNIGDQASISCKSTKSLLNGDGFTYLDWYLQKPGQSPQLLIYLVSNRFSGVPDRFSGSGSGTDFTLKISRVEAEDLGVYYCFESNYLFTFGSGTKLEMKR
notes: also called 23F1; ML129-23F1.4G3
B4: PR-1254977 (antibody, mouse IgG1, V domains shown)
VH: B3 VH with T69S
VL: B3 VL
notes: also called 21D4; ML129-21D4.4A11
B5: 2B12 hybridoma supernatant (antibody, mouse IgG2b, V domains shown)
VH: QVQLQQPGAELVKPGASVKLSCKASGYTFTNYWMHWVKQRPGQGLEWIGRIDPYGGGTKHNEKFKRKATVTADKSSSTAYILLSSLTSEDSAVYYCTRSGYDYYFDVWGTGTTVTVSS
VL: DIQMTQSPASLSASVGETVTVTCRASENIYSFLAWHQQKQGKSPQLLVYNANTLAEGVPSRFSGSGSGTQFSLKINSLQPEDFGSYYCQHHFGTPFTFGSGTKLEIKR
notes: Tested as supernatant of the hybridoma before subcloning; mouse IgG2b kappa; also called ML129-2B12.5G9

What was measured:
[1] = biological target: recombinant canine β NGF (canine); experiment: cell-based or functional assay
[2] = biological target: T1, recombinant canine β NGF; experiment: cell-based or functional assay
[3] = biological target: T1, recombinant canine β NGF; experiment: SPR (Biacore T100), antibody captured on goat anti-canine IgG, canine NGF injected
Method: Purified mouse/canine chimeric antibodies and caninized antibodies were analyzed for affinity to canine NGF using a Biacore T100 instrument. Goat anti Canine IgG (Southern Biotech) was immobilized at 5000-10000 RU on a CM5 chip using an amine coupling procedure according to the manufacturer's instructions (Biacore). […] The association rate was monitored for 5 min and the dissociation rate was monitored for 10-20 min. The chip surface was regenerated using 50-75 ul 10 mM glycine pH 1.5 at a flow rate of 50-100 ul/min. Data was analyzed using Biaevaluation T100 software version 2.0.2, software, GE Healthcare Life Sciences (Piscataway, N.J.). Overall affinity parameters established for mouse/canine chimeric antibodies is summarized in Table 22 and for caninized antibodies in Table 23. […] The overall KDs of the mouse/canine anti-NGF mAbs range from about 1300 pM to 1.6 pM. […] The overall KDs of the caninized anti-NGF mAbs range from about 42 pM to 1.2 pM.

[4] = biological target: T3, biotinylated rat β NGF (rat, UniProt P25427 122-241, limits assumed, biotinylated); experiment: capture ELISA; supernatant 125-fold
T3 construct: also called Biotinylated Rat NGF; rat NGF
T3 sequence (P25427 122-241 limits assumed): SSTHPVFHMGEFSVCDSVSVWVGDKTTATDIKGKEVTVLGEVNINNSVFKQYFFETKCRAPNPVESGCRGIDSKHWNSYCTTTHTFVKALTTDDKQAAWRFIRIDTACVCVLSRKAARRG
Method: (§1) The plates were washed three times with wash buffer. The plates were blocked with 200 μl of 2% milk and incubated for 1 hour at room temperature. The plates were washed as above. […] The positive control was crude sera (diluted 1:500 with PBS) isolated from a β NGF immunized mouse and the negative control was hybridoma supernatant derived from a mouse immunized with an antigen other than NGF. The plates were washed and then 50 μl of biotinylated human or rat β NGF at 50 ng/ml was added and incubated for 1 hour at room temperature. The plates were washed. […] The plates were incubated for 30 minutes at room temperature. The plates were washed and then TMB substrate (Invitrogen, catalog #00-2023) was added. The reaction was stopped using 2N H₂SO₄ (VWR, catalog # BDH3500-1). The absorbance at 450 nm was read on a Spectromax 2E plate reader (Molecular Devices); these absorbance readings are shown in Tables 1 and 2. The numerical value indicates binding of mouse anti-NGF antibodies to biotinylated human or rat β NGF.

[5] = biological target: T4, biotinylated human β NGF (human, UniProt P01138 122-241, biotinylated); experiment: capture ELISA; supernatant 125-fold
T4 construct: also called Biotinylated Human NGF; human NGF
T4 sequence (P01138 122-241 limits assumed): as the sequence (P25427 122-241 limits assumed) above, with T3S, V6I, M9R, T37M, A60D, E65D, T92M, D94G, A117V, G120A counted along it
Method: as §1

[6] = biological target: T2, recombinant canine β NGF; experiment: cell-based or functional assay
[7] = biological target: T3, biotinylated rat β NGF; experiment: capture ELISA; supernatant 625-fold
Method: as §1

[8] = biological target: T4, biotinylated human β NGF; experiment: capture ELISA; supernatant 625-fold
Method: as §1

[9] = biological target: T3, biotinylated rat β NGF; experiment: capture ELISA; supernatant 25-fold
Method: as §1

[10] = biological target: T4, biotinylated human β NGF; experiment: capture ELISA; supernatant 25-fold
Method: as §1

[11] = biological target: T3, biotinylated rat β NGF; experiment: capture ELISA; supernatant 5-fold
Method: as §1

[12] = biological target: T4, biotinylated human β NGF; experiment: capture ELISA; supernatant 5-fold
Method: as §1

[13] = biological target: T5, human β NGF (human, UniProt P01138 122-241, biotinylated in the TrkA inhibition ELISA (sites not given)); experiment: TrkA inhibition ELISA; biotin-hNGF bound to rat TrkA/Fc; supernatant 1-fold
T5 construct: Bought (R&D Systems 256-GF/CF); also called Human NGF; biotinylated human NGF
T5 sequence (P01138 122-241 limits assumed): as the sequence (P25427 122-241 limits assumed) above, with T3S, V6I, M9R, T37M, A60D, E65D, T92M, D94G, A117V, G120A counted along it
Method: (§2) The plates were washed three times with PBS/Tween. The plates were blocked with 200 μl/well of 2% milk in PBS for 1 hour at room temperature. The plates were washed three times as above. Rat TrkA/Fc chimera (R&D Systems, catalog #1056-TK) was added at 1 μg/ml (50 μl/well) in PBS/0.1% BSA and then incubated for 1 hour at room temperature. Biotinylated human NGF was titered and pre-incubated with anti-NGF antibody supernatants diluted 1-fold, 5-fold, and 25-fold, or purified anti-NGF mAbs diluted to 0.08, 0.4, 2, or 10 μg/ml for 1 hour at room temperature on a plate shaker. The negative control was unrelated conditioned supernatant. The positive control was sera from a mouse immunized with NGF. The plates were washed and then 50 μl of each biotinylated NGF/Ab mix was added to the appropriate wells. The plates were incubated for 1 hour at room temperature. The plates were washed. […] The plates were incubated for 30 min at room temperature. The plates were washed. 50 μl of TMB (Invitrogen, cat #00-2023) was added and the reaction was stopped using 2N H₂SO₄ (VWR, cat # BDH3500-1). The absorbance at 450 nm was read on a Spectromax 2E plate reader (Molecular Devices), and the absorbance readings are shown in Table 5 The numerical value indicates binding of biotinylated human β NGF to rat TrkA/Fc chimera.

[14] = biological target: T5, human β NGF; experiment: TrkA inhibition ELISA; biotin-hNGF bound to rat TrkA/Fc; supernatant 25-fold
Method: as §2

[15] = biological target: T5, human β NGF; experiment: TrkA inhibition ELISA; biotin-hNGF bound to rat TrkA/Fc; supernatant 5-fold
Method: as §2

[16] = biological target: T5, human β NGF; experiment: cell-based or functional assay

| Binder | TF-1 cell proliferation potency (70 pM canine NGF) [1] [pM] | IC50, canine NGF-induced TF-1 cell proliferation (70 pM canine NGF) [2] [nM] | Kd [3] [nM] | koff [3] [s⁻¹] | absorbance at 450 nm [4] | absorbance at 450 nm [5] | PathHunter IC50 (441 pM canine NGF) [6] [nM] | SureFire cellular pERK IC50 (128 pM canine NGF) [6] [nM] | absorbance at 450 nm [7] | absorbance at 450 nm [8] | absorbance at 450 nm [9] | absorbance at 450 nm [10] | absorbance at 450 nm [11] | absorbance at 450 nm [12] | absorbance at 450 nm [13] [OD450] | absorbance at 450 nm [14] [OD450] | absorbance at 450 nm [15] [OD450] | SureFire pERK, % of maximum signal; supernatant 1000-fold [16] [%] |
| --- | --- | --- | --- | --- | --- | --- | --- | --- | --- | --- | --- | --- | --- | --- | --- | --- | --- | --- |
| B1 | < 50 | 0.041 | 1.3 | 0.0038 | – | – | – | – | – | – | – | – | – | – | – | – | – | – |
| B2 | – | – | – | – | 0.261 | 0.576 | < 1 | < 1 | 0.108 | 0.143 | 0.431 | 0.997 | 0.472 | 1.1 | – | – | – | – |
| B3 | – | – | – | – | 0.737 | 0.979 | < 1 | < 1 | 0.528 | 0.696 | 0.767 | 1.17 | 0.764 | 1.14 | – | – | – | – |
| B4 | – | – | – | – | 0.671 | 0.899 | < 1 | < 1 | 0.453 | 0.543 | 0.76 | 1.04 | 0.787 | 1.15 | – | – | – | – |
| B5 | – | – | – | – | – | – | – | – | – | – | – | – | – | – | 0.065 | 0.095 | 0.07 | 0 |
